The Human Domainome abundance scans (Beltran et al. 2025)
± gives the uncertainty stated by the source.

B1: Dynamin-binding protein, residues 242 to 304; numbered along this chain, Q6XZF7 (parent)
chain: EEPGTYGVALYRFQALEPNELDFEVGDKIRILATLEDGWLEGSLKGRTGIFPYRFVKLCPDTR

Variants of: B1
Test: abundance fitness (aPCA) (normalised: wild type 0, dead -1); higher = more abundant; growth selection in yeast, the domain comes from the species named
Settings: Homo sapiens

First: EEPGTYGVALYRFQALEPNELDFEVGDKIRILATLIDGWLEGSLKGRTGIFPYRFVKLCPDTR [E36I]
Second: EEPGTYGVALYRFQALEPNELDFEVGDKIRILATLEDGFLEGSLKGRTGIFPYRFVKLCPDTR [W39F]
The abundance fitness of the first is lower: -1.02 ± 0.16 for the first, -0.168 ± 0.073 for the second.

Going from EEPGTYGVALYRFQALEPNELDFEVGDKIRILATLEDGELEGSLKGRTGIFPYRFVKLCPDTR [W39E] to EEPGTYGVALYRFQALEPNELDFEVGDKIRILATLEDGWLEGSLTGRTGIFPYRFVKLCPDTR [K45T], the abundance fitness falls from -0.379 ± 0.17 to -0.791 ± 0.13.

Compared with EEPGTYGVALYRFQALSPNELDFEVGDKIRILATLEDGWLEGSLKGRTGIFPYRFVKLCPDTR [E17S], EEPGTYGVALYRFQALRPNELDFEVGDKIRILATLEDGWLEGSLKGRTGIFPYRFVKLCPDTR [E17R] is higher in abundance fitness: -0.062 ± 0.047 for the first, 0.151 ± 0.053 for the second.

First: EEPGTYGVALYRFQALEPNELDFEVGDKIRQLATLEDGWLEGSLKGRTGIFPYRFVKLCPDTR [I31Q]
Second: EEPGTYGVALYRFQALEPNELDFEVGDKIRILATLEDGWLEGSYKGRTGIFPYRFVKLCPDTR [L44Y]
The abundance fitness of the first is higher: -0.084 ± 0.2 for the first, -0.393 ± 0.088 for the second.

EEPGTYGVALYRFRALEPNELDFEVGDKIRILATLEDGWLEGSLKGRTGIFPYRFVKLCPDTR [Q14R] and EEPGTYGVALYRFNALEPNELDFEVGDKIRILATLEDGWLEGSLKGRTGIFPYRFVKLCPDTR [Q14N] are within error of each other in abundance fitness: -0.2 ± 0.061 for the first, -0.198 ± 0.065 for the second.

EEPGTYGVALYRFQALEPNELDFEVGDKIRILATLEDGWLEGSLKGRTGIFQYRFVKLCPDTR [P52Q] and EEPGTYGVALYRFQALEPNELDFEVGDKIRILATLEDGWLEGSLKGRTGIFTYRFVKLCPDTR [P52T] are within error of each other in abundance fitness: -0.912 ± 0.49 for the first, -0.783 ± 0.13 for the second.

First: EEPGTYGVALYRFQALEPNELDFEVGDKIRILATLEDGWLEGSLKGRTGIFIYRFVKLCPDTR [P52I]
Second: EEPGTYGVALYRFQALEPNELDFEVGDKIRILATIEDGWLEGSLKGRTGIFPYRFVKLCPDTR [L35I]
The abundance fitness of the first is lower: -0.741 ± 0.11 for the first, -0.131 ± 0.063 for the second.

EEQGTYGVALYRFQALEPNELDFEVGDKIRILATLEDGWLEGSLKGRTGIFPYRFVKLCPDTR [P3Q] and EEFGTYGVALYRFQALEPNELDFEVGDKIRILATLEDGWLEGSLKGRTGIFPYRFVKLCPDTR [P3F] are within error of each other in abundance fitness: -0.026 ± 0.14 for the first, 0.059 ± 0.082 for the second.

ETPGTYGVALYRFQALEPNELDFEVGDKIRILATLEDGWLEGSLKGRTGIFPYRFVKLCPDTR [E2T] and EEPGTYGVALYRFQALEPNELDFEVGDEIRILATLEDGWLEGSLKGRTGIFPYRFVKLCPDTR [K28E] are within error of each other in abundance fitness: -0.024 ± 0.076 for the first, -0.157 ± 0.13 for the second.

Compared with EEPGTYGVALYRFQALEPNELDFEVGDKIRILATLEDGWLKGSLKGRTGIFPYRFVKLCPDTR [E41K], EEPGTYGVALYRFQALEPNELDFEVGDKIRILATLEDGWLEGSLKGRTFIFPYRFVKLCPDTR [G49F] is lower in abundance fitness: 0.017 ± 0.19 for the first, -0.735 ± 0.1 for the second.

Going from EEPGTYGVALYRFQANEPNELDFEVGDKIRILATLEDGWLEGSLKGRTGIFPYRFVKLCPDTR [L16N] to EEPATYGVALYRFQALEPNELDFEVGDKIRILATLEDGWLEGSLKGRTGIFPYRFVKLCPDTR [G4A], the abundance fitness falls from 0.35 ± 0.054 to -0.095 ± 0.059.

EEPGTYGVALYRFQALEPNELDFEVGDKIRILATLEDGWLEGSLKGRTGIFPYRFVKLCPDAR [T62A] and EEPGTYGVALYRFQALEPNELDFEVGDKIRILATLEDGWLEGSLKGRTGIFPYRFVKLCPDGR [T62G] are within error of each other in abundance fitness: -0.022 ± 0.057 for the first, 0.046 ± 0.049 for the second.

EEPGTYGVALYRFQALEPNELDFEVGDKDRILATLEDGWLEGSLKGRTGIFPYRFVKLCPDTR [I29D] and EEPGTYGVALYRFQALEPNELDFEVGDKERILATLEDGWLEGSLKGRTGIFPYRFVKLCPDTR [I29E] are within error of each other in abundance fitness: -0.685 ± 0.1 for the first, -0.721 ± 0.22 for the second.

First: EEPGTYGVALYRFQALEPNELDFEVGDKIRILATLEDGWLEGSLKGRTGIFPYRFVFLCPDTR [K57F]
Second: EEPGTYGVALYRFQALEPRELDFEVGDKIRILATLEDGWLEGSLKGRTGIFPYRFVKLCPDTR [N19R]
The abundance fitness of the first is lower: -0.697 ± 0.081 for the first, -0.167 ± 0.069 for the second.

First: EEPGTYGVALYRFQALEPGELDFEVGDKIRILATLEDGWLEGSLKGRTGIFPYRFVKLCPDTR [N19G]
Second: EEPGTYGVALYRFQALEPNELDFEVGDKIRILATLEDGWLEGSLKRRTGIFPYRFVKLCPDTR [G46R]
The abundance fitness of the first is higher: -0.055 ± 0.048 for the first, -0.612 ± 0.05 for the second.

Compared with EEPGTMGVALYRFQALEPNELDFEVGDKIRILATLEDGWLEGSLKGRTGIFPYRFVKLCPDTR [Y6M], EEPGTYGVALYGFQALEPNELDFEVGDKIRILATLEDGWLEGSLKGRTGIFPYRFVKLCPDTR [R12G] is higher in abundance fitness: -0.394 ± 0.16 for the first, -0.071 ± 0.051 for the second.

EEPGTYGVALYRFQALEPNELDFEVGDKIRILATLEDGWLEGSLKGRTGIFPYRFVKLCPATR [D61A] and EEPGTYGVALYRFQALEPNELDFEVGDKIRILATLEDGWLEGSLKGRTGIFPYRFVKLCPLTR [D61L] are within error of each other in abundance fitness: -0.095 ± 0.057 for the first, -0.185 ± 0.054 for the second.

Going from EEPGTYGVALYRFQALEPNELDFEVGDKIRILATLEDGWLEGSLKGRTGIFPYRFVKLRPDTR [C59R] to EEPGTYGVALYRFQALEPNELDFEVGDKIRILATLEDGWLEGSLKGRTGIFPYREVKLCPDTR [F55E], the abundance fitness falls from -0.339 ± 0.062 to -0.67 ± 0.1.

EEPGTYGVALYRFQALEPNELDFEEGDKIRILATLEDGWLEGSLKGRTGIFPYRFVKLCPDTR [V25E] and EEPGTYGVALYRFQALEWNELDFEVGDKIRILATLEDGWLEGSLKGRTGIFPYRFVKLCPDTR [P18W] are within error of each other in abundance fitness: -0.475 ± 0.15 for the first, -0.424 ± 0.11 for the second.

EEPGDYGVALYRFQALEPNELDFEVGDKIRILATLEDGWLEGSLKGRTGIFPYRFVKLCPDTR [T5D] and EEPGTYRVALYRFQALEPNELDFEVGDKIRILATLEDGWLEGSLKGRTGIFPYRFVKLCPDTR [G7R] are within error of each other in abundance fitness: -0.587 ± 0.099 for the first, -0.781 ± 0.1 for the second.

First: EEPGTYCVALYRFQALEPNELDFEVGDKIRILATLEDGWLEGSLKGRTGIFPYRFVKLCPDTR [G7C]
Second: EEPGTYGVALYRFQALEPNELDFEVGDKIRILATLEDGWTEGSLKGRTGIFPYRFVKLCPDTR [L40T]
The abundance fitness of the first is higher: 0.231 ± 0.045 for the first, -0.394 ± 0.085 for the second.

For EEPGTYGVACYRFQALEPNELDFEVGDKIRILATLEDGWLEGSLKGRTGIFPYRFVKLCPDTR [L10C], the abundance fitness was -0.477 ± 0.073.
